Blank lines part the entries; values can stand above or below the molecule they belong to.
Experiments:
CXCL10 = CXCL10 (UniProt P02778); details: cited from earlier work
[1] = biological target: Secreted Protein, Acidic, Rich in Cysteine (SPARC), recombinant murine (murine) (UniProt P07214); test: MST; Monolith NT.115; 4.5 nM NT-495-labelled SPARC, unlabelled chemokine titrated; Ca-MST buffer (50 mM Tris pH 7.4, 150 mM NaCl, 2 mM CaCl2, 0.05% Tween 20); room temperature; three measurements; thermophoresis plus t-jump
[2] = biological target: T1, Secreted Protein, Acidic, Rich in Cysteine (SPARC), recombinant murine (murine, UniProt P07214 18-302, fluorescent label NT-495, covalently linked by NHS coupling (in the thermophoresis only; unlabelled in the gel filtration)); test: as above; details: both partners purified
T1 construct: SPARC, mouse, recombinant; most likely the mature secreted protein; also called recombinant SPARC; source: bought: R&D Systems or Peprotech (recombinant murine)
T1 sequence (looked up): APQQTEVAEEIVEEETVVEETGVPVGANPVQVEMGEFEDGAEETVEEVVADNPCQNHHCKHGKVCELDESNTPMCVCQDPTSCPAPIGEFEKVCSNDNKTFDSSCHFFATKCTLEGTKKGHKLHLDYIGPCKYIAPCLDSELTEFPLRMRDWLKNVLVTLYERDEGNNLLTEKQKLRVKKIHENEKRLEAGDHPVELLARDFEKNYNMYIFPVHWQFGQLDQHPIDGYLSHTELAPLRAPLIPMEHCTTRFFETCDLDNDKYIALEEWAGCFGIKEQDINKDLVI

Molecule: CXCL10 (from UniProt P02778)
- Kd (CXCL10): 9000 nM

- Kd [1]: 984 nM
Molecule: CCL21, recombinant murine (from UniProt P84444 24-133) (ligand)

- Kd [2]: 1.9 nM
B1: CCL19, recombinant murine (ligand, UniProt O70460 26-108, looked up)
chain: GANDAEDCCLSVTQRPIPGNIVKAFRYLLNEDGCRVPAVVFTTLRGYQLCAPPDQPWVDRIIRRLKKSSAKNKGNSTRRSPVS
notes: CCL19, mouse, recombinant; Most likely the mature chemokine without its signal peptide; source: bought: R&D Systems or Peprotech (recombinant murine)
